One protein from PMC11440250 (iScience, 2024) can be followed below.

The data set deals with the molecule itself. As to the kind of experiment: cross-linking.

B1: Flag-PKM2 K207R (enzyme)
chain: not shown
On to B1, for which the binding result was “binds”.
